Positions count from the first letter of the chain named.

What is called koff is the rate constant with which the complex falls apart. In general, kon refers to the second-order rate constant of association. A low value points to slower complex formation.

In assay [1] the target is soluble human EpCAM-murine Fc (KSA-muFc) (human) (UniProt P16422). As to the kind of experiment: ELISA on plates coated with KSA-muFc; Group 1.
Assay [2] deals with T1, human epithelial cell adhesion molecule (EpCAM) on the cell surface (human, UniProt P16422 24-314).
T1 construct: whole, on cells; also called KS antigen; KSA
T1 sequence (looked up): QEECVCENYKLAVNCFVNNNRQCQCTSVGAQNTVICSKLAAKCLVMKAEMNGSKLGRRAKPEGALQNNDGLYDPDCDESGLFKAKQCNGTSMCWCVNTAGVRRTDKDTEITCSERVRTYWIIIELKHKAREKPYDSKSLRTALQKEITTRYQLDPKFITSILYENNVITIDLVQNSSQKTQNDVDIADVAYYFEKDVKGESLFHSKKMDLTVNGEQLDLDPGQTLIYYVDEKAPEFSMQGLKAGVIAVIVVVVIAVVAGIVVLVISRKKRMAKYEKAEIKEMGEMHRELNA
The experiment in a line: 125I-labelled protein on EpCAM-positive PC-3 tumor cells, saturation binding with Scatchard analysis. Here is the method:
Purified KS-1/4 antibodies were iodinated with ¹²⁵I using standard techniques, and increasing concentrations of labeled protein were incubated with the EpCAM-positive cell line PC-3. Saturation binding curves were generated and the dissociation constants were determined by Scatchard analysis.
In addition, the binding of iodinated VK8/VH7 and VK8/VH7-IL2 to EpCAM expressed on the surface of PC-3 tumor cells was compared to binding of iodinated VK0/VH0-IL2, using methods described in Example 1F. Within experimental error, essentially identical binding affinities were found for VK8/VH7 and VK0/VH0, and for VK8/VH7-IL2 and VK0/VH0-IL2.

The target of assay [3] is soluble human EpCAM-murine Fc (KSA-muFc) (human) (UniProt P16422). The experiment in a line: ELISA on plates coated with KSA-muFc; Group 2, control to which the group is normalized. In general terms: In an ELISA, binding on a coated surface is turned into a signal by an enzyme label.
Assay [4] has the same target. As to the kind of experiment: ELISA on plates coated with KSA-muFc; Group 2, normalized to VK8/VH7.
Assay [5] has the same target. As to the kind of experiment: EpCAM binding assay (ELISA on KSA-muFc).
Assay [6] shares this target. As to the kind of experiment: ELISA on plates coated with KSA-muFc; Group 3, normalized to VK8/VH7-IL2.
For assay [7] the target is unchanged. As to the kind of experiment: SPR (Biacore), EpCAM-muFc coupled to CM5 chip, fusion protein in solution.

With VK0/VH0 (Hybridoma chKS-1/4) (antibody), in assay [1], the Relative binding (fold-increase in protein concentration required to reach an equivalent level of binding) is 1 fold.

B1: VK8/VH7 (Construct 3) (antibody, V domains shown)
VH: QIQLVQSGAEVKKPGETVKISCKASGYTFTNYGMNWVKQTPGKGLKWMGWINTYTGEPTYADDFKGRFAFSLETSTSTAFLQINNLRSEDTATYFCVRFISKGDYWGQGTSVTVSS
VL: EIVLTQSPATLSLSPGERVTLTCSASSSVSYMLWYQQKPGSSPKPWIFDTSNLASGFPARFSGSGSGTSYSLIISSMEAEDAATYYCHQRSGYPYTFGGGTKLEIK
notes: Intact antibody with human constant regions (pdHL7 vector); also called KS antibody (Construct 3)
Take B1: the binding result in assay [2] was “binds”. Besides, in assay [3], the Relative binding (fold-increase in protein concentration required to reach an equivalent level of binding) was found to be 1 fold.

B2: VK0/VH1 (antibody, V domains shown)
VH: QIQLVQSGPELKKPGSSVKISCKASGYTFTNYGMNWVRQAPGKGLKWMGWINTYTGEPTYADDFKGRFTITAETSTSTLYLQLNNLRSEDTATYFCVRFMSKGDYWGQGTTVTVSS
VL: B1 VL with E1Q, V3L, T10I, L11M, L13A, R18K, L21M
Turning to B2, the Relative binding (fold-increase in protein concentration required to reach an equivalent level of binding) in assay [4] was 8 fold.

B3: VK0/VH'369 ('369 chKS-1/4) (antibody, V domains shown)
VH: QIQLVQSGPELKKPGETVKISCKASGYTFTNYGMNWVKQTPGKGLKWMGWINTYTGEPTYADDFKGRFAFSLETSASTAFLQIQQPQNMRTMATYFCVRFISKGDYWGQGTSVTVSS
VL: B1 VL with E1Q, V3L, T10I, L11M, L13A, R18K, L21M
In the case of B3, the Relative binding (fold-increase in protein concentration required to reach an equivalent level of binding) in assay [1] is above 30 fold.

B4: VK1/VH7 (antibody, V domains shown)
VH: B1 VH
VL: QIVLTQSPASLAVSPGQRATITCSASSSVSYILWYQQKPGQPPKPWIFDTSNLASGFPSRFSGSGSGTSYTLTINSLEAEDAATYYCHQRSGYPYTFGGGTKVEIK
For the molecule B4, the Relative binding (fold-increase in protein concentration required to reach an equivalent level of binding) in assay [4] was 1 fold.

B5: VK6/VH6 (Construct 1) (antibody, V domains shown)
VH: QVQLVQSGAEVKKPGESVKISCKASGYTFTNYGMNWVRQAPGKGLEWMGWINTYTGEPTYAQKFQGRVTISLDTSTSTAYLQLSSLRAEDTAVYFCVRFISKGDYWGQGTSVTVSS
VL: EIVLTQSPATLSLSPGERVTLTCSASSSVSYMLWYQQKPGQAPKLLIFDTSNLASGIPARFSGSGSGTDYTLTISSLEPEDFAVYYCHQRSGYPYTFGGGTKLEIK
In assay [5], B5 had a fold less active in an EpCAM binding assay above 10 fold.

B6: VK1/VH1 (antibody, V domains shown)
VH: B2 VH
VL: B4 VL
Regarding B6, in assay [4], the Relative binding (fold-increase in protein concentration required to reach an equivalent level of binding) stood at 2 fold.

B7: VK1/VH2.5-IL2 (protein)
VL: B4 VL
VH: B2 VH with M100I, Q108T
As to B7, the Relative binding (fold-increase in protein concentration required to reach an equivalent level of binding) in assay [4] was 3 to 4 fold.

B8: VK1/VH2.4-IL2 (protein)
VL: B4 VL
VH: QIQLVQSGPELKKPGSSVKISCKASGYTFTNYGMNWVRQAPGKGLKWMGWINTYTGEPTYADDFKGRFTITAETSTSTLYLQLNNLRSEDTATYFCVRFISKTGDYWGQGTTVTVSS
Take B8: the Relative binding (fold-increase in protein concentration required to reach an equivalent level of binding) in assay [6] came to 3 fold.

B9: VK1/VH2.2-IL2 (protein)
VL: B4 VL
VH: B8 VH with S101V, K102S, T103K
For the molecule B9, the Relative binding (fold-increase in protein concentration required to reach an equivalent level of binding) in assay [6] was above 10 fold.

B10: VK1/VH2-IL2 (protein)
VL: B4 VL
VH: B2 VH with M100I
In the case of B10, in assay [7], the koff amounted to 0.00053 s⁻¹ and the kon was 170000 M⁻¹ s⁻¹. Moreover, the Relative binding (fold-increase in protein concentration required to reach an equivalent level of binding) in assay [4] came out at 1.5 fold.

B11: VK1/VH2.3-IL2 (protein)
VL: B4 VL
VH: B8 VH with K102A, T103K
Consider B11, for which the Relative binding (fold-increase in protein concentration required to reach an equivalent level of binding) in assay [6] was determined as 7 fold.

B12: VK1/VH2.1-IL2 (protein)
VL: B4 VL
VH: B8 VH with S101I, K102S, T103K
In the case of B12, the Relative binding (fold-increase in protein concentration required to reach an equivalent level of binding) in assay [6] is above 10 fold.

B13: VK1/VH1-IL2 (protein)
VL: B4 VL
VH: B2 VH
For B13, the Relative binding (fold-increase in protein concentration required to reach an equivalent level of binding) in assay [6] came out at 2 fold. For the same molecule, in assay [7], the koff is 0.0022 s⁻¹ and the kon amounted to 280000 M⁻¹ s⁻¹. In addition, the Relative binding (fold-increase in protein concentration required to reach an equivalent level of binding) in assay [4] was 5 fold.

B14: VK1/VH2 (antibody, V domains shown)
VH: B2 VH with M100I
VL: B4 VL
In the case of B14, the Relative binding (fold-increase in protein concentration required to reach an equivalent level of binding) in assay [4] is 1 to 2 fold.

(Values after patent publication US20030157054A1 (Merck KGaA, published 2003).)
